Test results taken from patent US20260242478A1 (published 2026).
Where no end group is shown, it is not given here.

B1: Phage-1842 (peptide)
peptide: VERWCVPEWMCHWI
notes: tested as crude clonal phage supernatant
B2: Phage-1838 (peptide)
peptide: VMKWCIPVWMCGGM
notes: as for B1
B3: Phage-1833 (peptide)
peptide: DIPWCIPPWMCAGS
modifications: cysteine pairing not given here; also: displayed on phage as pIII fusion, pIII sequence and linker not given here
notes: as for B1
B4: Phage-1836 (peptide)
peptide: WLPMCRPAWMCAGL
modifications: cysteine pairing not given here; also: displayed on phage as pIII fusion, pIII sequence and linker not given here
notes: as for B1
B5: Phage-1845 (peptide)
peptide: FTNWCTPEWMCSGF
notes: as for B1
B6: Phage-1840 (peptide)
peptide: MVKWCIPSWMCDSV
notes: as for B1
B7: Phage-1841 (peptide)
peptide: TDKWCIPPWMCMLQ
notes: as for B1
B8: Phage-1835 (peptide)
peptide: YEKWCVPDWMCSMI
notes: as for B1
B9: Phage-1844 (peptide)
peptide: TDKLCIPEWMCINW
notes: as for B1
B10: Phage-1837 (peptide)
peptide: GLNWCTPTWMCQGF
notes: as for B1
B11: Phage-1832 (peptide)
peptide: MGKWCIPEWMCNVS
notes: as for B1
B12: Phage-1839 (peptide)
peptide: YDILCRPSWMCSWV
notes: as for B1
B13: Phage-1831 (peptide)
peptide: IIPWCKPAWMCSGM
notes: as for B1
B14: Phage-1843 (peptide)
peptide: LDRWCIPEWMCEMF
notes: as for B1
B15: Phage-1834 (peptide)
peptide: VERMCMPAWMCDMF
notes: as for B1

Assays:
[1] = molecular target: T1, Anti-PSMA Fab (SEQ ID NOs: 19, 20); assay: phage binding ELISA; biotinylated anti-PSMA Fab captured on neutravidin, bound phage detected with anti-M13 HRP
T1 construct: Biotinylated and captured on neutravidin coated plates in the phage ELISA; also called 006 PSMA Fab
Protocol: (§1) Clonal phage were harvested as crude supernatants and screened via standard ELISAs. […] Prior to the addition of clonal phage. wells were incubated with blocking buffer and PSMA antigen or blocking buffer alone. Without washing or aspirating, clonal phage supernatants were then added to the wells and incubated for a short time. Wells were then washed followed by detection of bound phage using a horse radish conjugated anti-M13 antibody.

[2] = molecular target: T1, Anti-PSMA Fab (SEQ ID NOs: 19, 20); assay: phage binding ELISA on captured anti-PSMA Fab; PSMA antigen as competitor
Protocol: as §1

[3] = molecular target: T2, Anti-PSMA Fab (SEQ ID NOs: 19, 20); assay: phage binding ELISA; PSMA Fab on plate pre-incubated with PSMA antigen as competitor, anti-M13 HRP detection;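 note: crude clonal phage supernatants added without washing to wells preincubated with PSMA in blocking buffer, compared with wells receiving blocking buffer only, then bound phage detected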
T2 construct: Biotinylated PSMA Fab captured on neutravidin coated plates in the phage ELISA; also called 006 PSMA Fab
Protocol: as §1

[4] = molecular target: T2, Anti-PSMA Fab (SEQ ID NOs: 19, 20); assay: phage binding ELISA; biotinylated PSMA Fab on neutravidin plate, clonal phage supernatant, anti-M13 HRP detection;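 note: wells were preincubated with blocking buffer either containing PSMA antigen or without it before crude phage supernatant was added, briefly incubated, then washed prior to detection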
Protocol: as §1

[5] = molecular target: T3, Anti-PSMA Fab (SEQ ID NOs: 19, 20); assay: phage binding ELISA on PSMA Fab coated plates; competitor: PSMA antigen
T3 construct: Biotinylated Fab captured on neutravidin coated plates in the phage ELISA; also called 006 PSMA Fab
Protocol: as §1

[6] = molecular target: T3, Anti-PSMA Fab (SEQ ID NOs: 19, 20); assay: phage binding ELISA; clonal phage on biotinylated PSMA Fab captured on neutravidin plates, anti-M13 HRP detection
Protocol: as §1

Binder	Anti-PSMA Fab (SEQ ID NOs: 19, 20) signal [1]	Anti-PSMA Fab signal in the presence of PSMA [2]	Anti-PSMA Fab signal in the presence of PSMA [3]	Anti-PSMA Fab (SEQ ID NOs: 19, 20) signal [4]	Anti-PSMA Fab signal in the presence of PSMA [5]	Anti-PSMA Fab (SEQ ID NOs: 19, 20) signal [6]
LTKLCIPDWMCSEF [Phage-1776 (clonal phage displaying the peptide of SEQ ID NO: 2072)]	2.07	0.0876	–	–	–	–
B1	–	–	0.0977	2.23	–	–
B2	–	–	0.291	2.26	–	–
LDNWCKPSWMCTGF [Phage-1777 (clonal phage displaying the peptide of SEQ ID NO: 2073)]	2.05	0.0633	–	–	–	–
DVKLCKPEWMCYGL [Phage-1786 (clonal phage displaying the peptide of SEQ ID NO: 2082)]	1.75	0.0637	–	–	–	–
FVPLCKPAWMCSFV [Phage-1768]	–	–	–	–	0.111	2.2
B3	–	–	0.112	2.28	–	–
B4	–	–	0.0653	2.27	–	–
IDKLCIPFWMCENL [Phage-1771]	–	–	–	–	0.0699	2.16
HCEFHDYQSCDVLY [Phage-1761]	–	–	–	–	0.126	1.89
B5	–	–	0.0826	2.21	–	–
B6	–	–	0.109	2.23	–	–
LDKWCVPKWMCSGL [Phage-1782 (clonal phage displaying the peptide of SEQ ID NO: 2078)]	1.92	0.0742	–	–	–	–
B7	–	–	0.0865	2.23	–	–
VLKWCRPAWMCEVL [Phage-1766]	–	–	–	–	0.219	2.38
B8	–	–	0.0678	2.28	–	–
GEKWCIPDWMCSGF [Phage-1783 (clonal phage displaying the peptide of SEQ ID NO: 2079)]	1.91	0.148	–	–	–	–
DLRLCKPAWMCYFI [Phage-1773]	–	–	–	–	0.0751	2.11
VVKACIPTWMCQFV [Phage-1779 (clonal phage displaying the peptide of SEQ ID NO: 2075)]	2.02	0.0901	–	–	–	–
VGKLCVPEWMCVGL [Phage-1767]	–	–	–	–	0.063	2.25
VEKLCTPIWMCLGF [Phage-1785 (clonal phage displaying the peptide of SEQ ID NO: 2081)]	1.84	0.0705	–	–	–	–
B9	–	–	0.0602	2.22	–	–

Binder	Anti-PSMA Fab (SEQ ID NOs: 19, 20) signal [1]	Anti-PSMA Fab signal in the presence of PSMA [2]	Anti-PSMA Fab signal in the presence of PSMA [3]	Anti-PSMA Fab (SEQ ID NOs: 19, 20) signal [4]	Anti-PSMA Fab signal in the presence of PSMA [5]	Anti-PSMA Fab (SEQ ID NOs: 19, 20) signal [6]
LEKLCKPAWMCVNF [Phage-1788 (clonal phage displaying the peptide of SEQ ID NO: 2084)]	1.66	0.107	–	–	–	–
DLRLCKPAWMCDFI [Phage-1781 (clonal phage displaying the peptide of SEQ ID NO: 2077)]	1.95	0.0601	–	–	–	–
VTKWCIPPWMCEVT (also called Peptide-230) [Phage-1780 (clonal phage displaying the peptide of SEQ ID NO: 2076)]	2	0.0864	–	–	–	–
EGIRCTPIWMCEGF [Phage-1774]	–	–	–	–	0.0778	2.09
EFKWCIPSWMCHET [Phage-1778 (clonal phage displaying the peptide of SEQ ID NO: 2074)]	2.02	0.0857	–	–	–	–
B10	–	–	0.0833	2.26	–	–
ISKWCIPEWMCTSP [Phage-1787 (clonal phage displaying the peptide of SEQ ID NO: 2083)]	1.73	0.107	–	–	–	–
B11	–	–	0.0652	2.29	–	–
IDIRCTPIWMCVGF [Phage-1789 (clonal phage displaying the peptide of SEQ ID NO: 2085)]	1.57	0.0801	–	–	–	–
LEKLCIPAWMCEWL [Phage-1765]	–	–	–	–	0.184	2.4
WEKLCTPAWMCVGF [Phage-1764]	–	–	–	–	0.105	2.44
HVKLCKPAWMCQGL [Phage-1769]	–	–	–	–	0.0831	2.18
B12	–	–	0.145	2.24	–	–
LCEWWTSHVDAWCA [Phage-1763]	–	–	–	–	0.184	0.575
FEKWCTPPWMCSLF [Phage-1772]	–	–	–	–	0.203	2.11
HCKFHDYHSWYVCY [Phage-1762]	–	–	–	–	0.0994	2.31
LEKTCIPTWMCVGF [Phage-1784 (clonal phage displaying the peptide of SEQ ID NO: 2080)]	1.88	0.0732	–	–	–	–
IPKSCIPSWMCTGF [Phage-1775 (clonal phage displaying the peptide of SEQ ID NO: 2071)]	2.08	0.101	–	–	–	–
B13	–	–	0.275	2.29	–	–
B14	–	–	0.0928	2.22	–	–
FEKLCVPKWMCEGI (also called Peptide-220) [Phage-1770]	–	–	–	–	0.0601	2.17
B15	–	–	0.0862	2.28	–	–
